From patent EP3240566B1 (Development Center for Biotechnology, dated 2020) come the findings set out here.

As usually defined, the Kd is the free concentration of one partner at which half of the binding sites on the other are occupied at equilibrium, for simple one-to-one binding.

Experiment [1] has as its target T1, human ENO1 protein (human, UniProt P06733 1-434).
T1 construct: also called ENOl; alpha-enolase
The experiment in a line: SPR, BIAcore 2000, ENO1 injected, 25 degree C, 1:1 Langmuir. A general note: Surface plasmon resonance follows binding to a sensor surface in real time, without labels.

In experiment [2] the target is T1, human ENO1 protein. Description: ENO1 binding ELISA. On the technique in general: An ELISA detects its analyte on a solid surface through an enzyme-linked reagent.

T1 sequence (P06733 whole entry): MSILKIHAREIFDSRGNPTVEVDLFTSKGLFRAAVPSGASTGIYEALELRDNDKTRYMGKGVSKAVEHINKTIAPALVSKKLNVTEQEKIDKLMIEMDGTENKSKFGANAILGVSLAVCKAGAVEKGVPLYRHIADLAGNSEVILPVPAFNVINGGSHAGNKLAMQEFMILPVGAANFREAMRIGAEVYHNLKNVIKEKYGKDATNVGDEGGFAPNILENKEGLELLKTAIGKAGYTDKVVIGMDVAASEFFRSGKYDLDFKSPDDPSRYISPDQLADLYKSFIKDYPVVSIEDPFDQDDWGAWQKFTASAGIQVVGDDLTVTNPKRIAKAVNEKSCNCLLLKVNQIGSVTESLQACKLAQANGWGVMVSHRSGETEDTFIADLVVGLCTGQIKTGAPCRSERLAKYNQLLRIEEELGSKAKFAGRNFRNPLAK

B1: hum EN10 mAb IMGT (antibody, IgG1, V domains shown)
VH: QVQLVQSGAEVKKPGASVKVSCKASGYTFTSCVMNWVRQAPGQGLEWMGYINPYNDGTKYNEKFKGRVTMTTDTSTSTAYMELRSLRSDDTAVYYCAREGFYYGNFDNWGQGTLVTVSS
VL: DIQMTQSPSSLSASVGDRVTITCRASENIYSYLTWYQQKPGKAPKLLIYNAKTLPEGVPSRFSGSGSGTDFTLTISSLQPEDFATYYCQHHYGTPYTFGQGTKLEIKR
notes: also called humanized EN10 mAb IMGT; Hum EN10 IMGT
B1: the Kd came out at 0.219 nM in experiment [1] and 0.0365 nM in experiment [2].

B2: hum EN10 mAb 4D5 (antibody, IgG1, V domains shown)
VH: EVQLVESGGGLVQPGGSLRLSCAASGYTFTSCVMNWVRQAPGKGLEWVAYINPYNDGTKYNEKFKGRFTISRDDSKNTLYLQMNSLRAEDTAVYYCAREGFYYGNFDNWGQGTLVTVSS
VL: B1 VL
notes: also called humanized EN10 mAb 4D5; hum ENO10mAb 4D5
In experiment [1], B2 gave a Kd of 0.5 nM.
